Experimental data taken from the DeepSol protein solubility set.

Experiment: soluble on expression in E. coli; label from the status in PepcDB or PDB records

Row | Sequence | soluble on expression in E. coli
1 | MAFLDNPTIILAHIRQSHVTSDDTGMCEMVLIDHDVDLEKIHPPSMPGDSGSEIQGSNGETQGYVYAQSVDITSSWDFGIRRRSNTAQRLERLRKERQNQIKCKNIQWKERNSKQSAQELKSLFEKKSLKEKPPISGKQSILSVRLEQCPLQLNNPFNEYSKFDGKGHVGTTATKKIDVYLPLHSSQDRLLPMTVVTMASARVQDLIGLICWQYTSEGREPKLNDNVSAYCLHIAEDDGEVDTDFPPLDSNEPIHKFGFSTLALVEKYSSPGLTSKESLFVRINAAHGFSLIQVDNTKVTMKEILLKAVKRRKGSQKVSGSRADGVFEEDSQIDIATVQDMLSSHHYKSFKVSMIHRLRFTTDVQLGISGDKVEIDPVTNQKASTKFWIKQKPISIDSDLLCACDLAEEKSPSHAIFKLTYLSNHDYKHLYFESDAATVNEIVLKVNYILESRASTARADYFAQKQRKLNRRTSFSFQKEKKSGQQ | soluble
2 | MTIIAGTVVKGKQLGRKLGFPTANVDAKIHGLRNGVYGVLATVNHQFHLGVMNIGVKPTVGSNLEKTLEIFLFDFHRDIYGEKIECSILFKIREERRFDSLESLTKQIKKDISCVAKRFELIGIMAPNKKESLLSHQELNLPDLCFYKKCNNLYGVNRGVYNVIDNWFFEYGITQVAYRRIYILSFLSFLKEDNPKVSSKYIRFGAGGLADKLNRFISSYVEESEENILGLEHHHHHH | soluble
3 | MCSLNELITGIKELPEPDLTASRLMDAAADYVPLKLRGHIDAKDINSSPKTLENGGTEFFQALIDITHPRLRLYGSGKELAENVRIHRNFPTSHRSPIIYKSLDNNQYIYKTDVFIIIQNICGYRKDSTNNIIELNRFLEVMYLKAREETSRKYLEFVRFDADSFRKIEKKFEKFNQGACFVDRSLEQRNSNGDHLPIVQELDSMKSIEFIQHPIQRAKHKAVPIEDLKPGSYCILAVDALFELFNEIIWGSRVFEKHKVPKIIEYVLKIPTLLFKSELRFPHFIKTAHLHRLLASFEVSLSSFHFPANPVKEVRNAKADHGFTLQNLKNELTYLGLTETFPDITDYAEIAYNEVMRVKKEMLLRTCDLFDAIEHCQLLCIFNRSPFLKQFLHNQKACHRLVGLHCDLCIKEKVEKSENQEAWDLDESSSTKSPIDCKKCSQTLQTIEDVKKELKTSQNKENKMRKKVSELEKKLDVENVQNEQEVKEMEDDLRGKQEELNILRNDSLKVHDVLMEIADLKQKHSKLEKHVEGLKEENLKQERNYNLTQSNLEANLSSMREGLTILQQYTEELEQERQKYQEMLTARSEETSVQAEPAGGEEEMLDVTKQIEEAKEEKIRLKAEHDANERIIQQLLDKLANFS | not soluble
4 | GMAEDQTVLAIDIGGSHVKIGLSTDGEERKVESGKTMTGPEMVAAVTAMAKDMTYDVIAMGYPGPVVHNKPLREPVNLGEGWVGYDYEGAFGRPVRIVNDALMQAIGSYNGGRMLFLGLGTGLGAAMIVENVAQPMEIAHLPYRKGKTYEHYVSEAYREKKGNAKWQKRVQDVVERLSAALEPDEVVIGGGNVERLENLPPKCRRGDNAMAFEGGFRLWKNADLIV | soluble
5 | EEIHLIAVNELLYVKAEDKYLSLYKVHGATTHEYLLRSSLKELLAQLDPNQFWQIHRSIVVNVGKIDKVTRDFGGKMWVHIDRLQLPVSRALQHLFKVS | not soluble
6 | MGHHHHHHSHSGGRNKIRKILDKTRFSILPPKLFSDGGLSQSQDDSIVGTRHCRHSLAIMPIPGTLSSSSPDLLQPTTSMLDFSNPSDIPDQVIRVFKVDQQSCYIIISKDTTAKEVVFHAVHEFGLTGASDTYSLCEVSVTPEGVIKQRRLPDQFSKLADRIQLNGRYYLKNNMETETLC | not soluble
7 | MKSIVEKLNLTKYQQLVILNRPQGEYLSEFASAAQQLPSEPVELIFAFVKTMAEFQEIVSMVIEGQHLVENGLLYVAYPKKGNKMYPTFVHRDEIFPTLQVNEADGYIKGSTLKFNRMVSLDETFTVVGMKNVLKKLAKNQTSSAVGDYVQYLPEIEALVQTEPAAAATFAALTPGYQKEWARYVFSAKRAETRKKRQTEMLVILKEGYKTKALYQQRKK | not soluble
8 | MAHHHHHHMFLLCRTNLAKKIKDKIPYGVKQSQNYKDAKKQERLALEANRKLKESRGMLLDGKKNLFMCLRQNSDINWYRAGQILKHLEIHQRAKPDITPSLREKITNIANFVKKGR | soluble
9 | MAHHHHHHMSAARDDSAPCAVPSTLWRECLKQYDYGPDRPKGACEAHRTKFYDCVKDWTARTQHKSYSYTQFELPKSCGHEAEKLHQCMMMNMFEVGHCQRDMAVLKRCAARVDPEVRKYLQDDEAIADLENDIDEATGLKRLWYKVIGKL | soluble
10 | MSLSQSLWQRLFNHRQQTKQAVLILGSGRSGTSVMTKCVNLMGISLGTDNLLAPSKRINPKGYFENKDVINIHKSLGSRIRYRPAFKDYYDSPKIKKDRAALTTYLRNFFENEQYLAIKDPRMNDYIELWQRVLADVEVQPAEIVLLRNPMDVVNSNERAWHRDTTLAMRQWQVRTLLSLRDTDREHRILVTYEDLFGQTLTTLKRIATQFNLPWTSDEAALQAQIDDFIDPALQKSDSGENLADFEARTDVKPDVKALYLLGRQAAADPDYFASAEFQQRIDEMTDEYLAKYGALYRDFNEGHHHHHH | soluble
11 | MSLGRLEKRFSFAFCSYWRPFRRPLRTHHGLWSVREGILIRLTDRETGCQGYGEIAPIPWFGSETLEQALAFCRQLPPLLSEAYILGIPEALPACRFGLEGAWLACRDPDWLNKDLSLLSFCELLGETLPPESYKDSYKDSVPLTRSVYKLKVGRDPMQQELEKLEQWLERLPPGSRLRLDANGGLSLAEAHRWLMVCDRLNQDSPGKIEFLEQPLPPDQHSHLVELSRQYQTPIALDESVACLEQLQAVHRSGWTGILVVKPSLVGSCIALREYLSRHPGLDLVFSSALETAIGAWHGLAWAGSLQAKTASPRAVGWGVGEFFQEGDPLTLTQLSAQERAALMQAVWERYSREGHHHHHH | soluble
12 | MAEVKKKIKPGAIEAHAEELAIVVHYEVQEVSTQSDGSQKVISKEPGEKKISVKSLSEKTNVPLLATEIIEKCKLIHPSKAGQVEELLYQLQSRGGGGGADAKAKPAAKPAAASPAKSAAAAPPPPSNVAQSPQKPGQPPSTPSKKPPAAAGAPAPMLNGKPAPKAQSRLDAEAEERADLQARRQAQAMQIFKMQQKQYEQAYMNKLDEYIEGLYEEEMPKKVRATGMIAQLFRNTENFEVLLSHETLMQTLSRVLREDGKRSIDLCTNIISVFFSVSNFTQFHGLIMQNQVGALTMDLIDLEIKRTEHRASEENISPAMVAQKALEASQGQVTLSEREKKLLALIQKQDRLLYIAFYMLLNLSEDIEVERKMKKKNIVVYLVKMLERSNVELLILATTFLKKLSIYKENKETMSSCKIVEKLMKFVPVLNDVLLMSVLRLLHNLSFDHSLRDDMVKHGLIPKAVELMMVPRFQPVVLGLLYHISMEDKYKSLFTFTDCLNKMYDMLMRVQADLRNTPELIALAVNLTQNPRNAETMCEGDRFDKMMRRAFQTCDELMFKVLRNLSQQEGINIKRRFGPYVEQLVTLLRAPDITAELFVEVLGCLANLYIPEFDFLGLVRKHDLLTFLATYAQPGAVDDDILLEVVMFVGVLCNEGTAPLIVSSGLVTTLFQLMGDKKEDDEFVLQIAFTFHKFLLHDETRASLLTNTQQVVFYLVDLLQDKNKEVRRVADQCLDIIMDTDEEWAVQIRNLKFESFNQEWLDVVSQPAGGMAAHAGRQRNGYDDETEVDYSGGDGYYNIGDQRLVADFDDLGTNGGTWGPGDEGLQGGYEGNYDGYDEEELRQGYAM | not soluble
13 | MAVTQSPRNKVAVTGGKVTLSCNQTNNHNNMYWYRQDTGHGLRLIHYSYGAGSTEKGDIPDGYKASRPSQENFSLILELATPSQTSVYFCASGDLGQTNERLFFGHGTKLSVLGSADDAKKDAAKKDGQVRQSPQSLTVWEGETAILNCSYENSAFDYFPWYQQFPGEGPALLISILSVSDKKEDGRFTIFFNKREKKLSLHIADSQPGDSATYFCAAIDTNAYKVIFGKGTHLHVLP | soluble
14 | MFNFANVYQQIAQHPQLQLWLNTLPQQLTDWQAKQHGDLDRWMRNLKKIPVGQPEVIDLKNAVAAHNHQPLAQGEQKKLEAVLKTFHPWRKGPYHLHGIHIDTEWRSDWKWDRLLPHISPLKNRLVLDVGCGNGYHMWRMLGEGAQQVFGIDPSELFLIQFEAVRKLLGDDQRVHLLPLGIEQMPELNAFDTVFSMGVLYHRRSPLDHLLQLKNQLVAGGELILETLVVEGDEHTVLVPFDRYAQMRNVYFFPSALALKVWLEKTGFVDVRIVDENITSLGEQRTTEWMTHNSLPDYVDPQDPSKTIEGYPAPRRAILIAKKP | not soluble
15 | MMEDGNYIINPWVYTDRMGMYRILLEETAMYFAKYGPENEQNLLWGLPLQFGWQYQSGRLADPTGMTDCGNELNESLCVSVDSWWADINYYLSVIPFLAAVDSGITGISPNQITILPPPKDQMRFCYNVSDCQSAVPGTMNRWRDFFQYMQLNSSDFDGLLNYLWEAHASSLDYPTSAFGDRYNFYSEKEANFEENWAIAVNYLAAARLPTTQNRTYSFQRGLPPRVLVDTDIAPFIPDFTPLQNEVLVSLKLLGDTDRNSGSLSLTLWENLMSTKLARTLFLKAFEEFLVTSS | soluble
16 | MSFDKKVTIAHLSDLHFASKNDRYLTARLDTMLGEFVRRKYDHLVMTGDLIDTASPALWTIIRDALVRHGLFDWTKTTVIPGNHDLIDLEEEMRFYNALNPDDRSRQHRVDDRLRQFNAIFRPLITDNGDALAGVPFVKVMRLGGISLSFVAVNTVDPWSGLDNPAGARGSVSPETLRALQEPGVRQVLDDTFIIGLCHHAYKVYGTGALVDQVFDWTMEFKNRDEYLKAMKNLGVRLVLHGHFHRFQVYQANGINFINGGSFRYSPERYGELVINADGRWSHRFVNLALKKLEHHHHHH | not soluble
17 | MQSAYSFLPQVIAHRGSSGQAPENTLASLHLAGQQGIKWVEIDVMLSGDGIPVIFHDDYLSRTTDGDGLIYKTPLAELKQLDAGSWKGQEYQQETIPTLLEAIEVISQYGMGLNLELKPCEGLEEETIAASVEVLKQHWPQDLPLLFSSFNYFALVSAKALWPEIARGYNVSAIPSAWQERLEHLDCAGLHIHQSFFDVQQVSDIKAAGYKVLAFTINDESLALKLYNQGLDAVFSDYPQKIQSAIDSHIN | soluble
18 | MNDEINEPPPNICEQCLGDEANIRMTKIPQGSECKICTLPFTLYHFKTSKRSNNIIKTLICVRCATQRNICQCCMLDSRWHIPIQLRDHLISLVNEENVMTEEAKNDMMKRFLSLKNVKLGGAQITSDPSEADNIVDKLKNILLRATSDGPSTPLIKNTTALYKNEKGANEVKNLEKYASVDISHILKKLPLNESFLKNPSTKSFFLYNIDASIPEWKITDTVSQLLGIKKWKDGNSLSLIVNHKAKCGGLRFQSSELGERFVSKISETLVTPKGLKRGVLLIDRFRIFIIPWSSGFSAASFGTNTAENIKLSLSLNKLIQLELGLSFPTKSTDNAKNDKKKTSKKVHKDRSKKSKPRANKLTI | soluble
19 | MNEEKQQELLISVIITNYNYDQFIDQAIESVLSQTYYNFELIIVDDGSTDNSRDVISSYTDSRIKALVKNNGGQASAFNAGFEQANGEIICFLDSDDWWKPEKLETIIRWHYFINKDYAIFQHVLDVWYEGKTRPYKHILPSGDCFAEMKKVKKLDFFVPTSGLSFPKKILDRIFPIPIKFIIAADSYIMRTACVFNMVYSIPKSLGFYRQHDNTVFLNPDFDLQPFLKEILIPELNQFYQKYRINYQIEISDYNFNERKKNKKQKIFEYLKKVFFLEHHHHHH | not soluble
